Experimental data from patent publication US20230391845A1, “GLP-1, GIP AND GLUCAGON RECEPTOR TRIPLE AGONISTS” (priority 2020, published 2023).
*1 amine or outer side, *2 acyl side, *3 side chain or, on linkers, in order; H or OH if unused. Where a SMILES comes first, the peptide text is derived from it. Where no end group is shown, it is not given here. Side-chain parts run from the residue outwards. [ ]: non-standard residue; d: D form. The star is where a group is joined. X1 = O=C(O)CCCCCCCCCCCCCCCCCCC(=O)NCC1CCC(C(=O)*)CC1; γGlu = O=C(O)[C@H](CCC(=O)[*:2])N[*:1]; εLys = N[C@@H](CCCCN[*:1])C(=O)[*:2]; Aib = CC(C)(N)C(=O)O

Tests used:
mouse GLP-1 receptor [1] = biological target: T1, mouse GLP-1 receptor (Mus musculus, UniProt O35659); assay: In vitro functional potency (CRE luciferase; whole cells), mouse GLP-1R; type: cell-based; details: BHK cells expressing mouse GLP-1 receptor
T1 construct: expressed in transfected cells; host or cells: BHK cells (parent line BHKTS13) containing CRE luciferase
T1 sequence (O35659 22-463): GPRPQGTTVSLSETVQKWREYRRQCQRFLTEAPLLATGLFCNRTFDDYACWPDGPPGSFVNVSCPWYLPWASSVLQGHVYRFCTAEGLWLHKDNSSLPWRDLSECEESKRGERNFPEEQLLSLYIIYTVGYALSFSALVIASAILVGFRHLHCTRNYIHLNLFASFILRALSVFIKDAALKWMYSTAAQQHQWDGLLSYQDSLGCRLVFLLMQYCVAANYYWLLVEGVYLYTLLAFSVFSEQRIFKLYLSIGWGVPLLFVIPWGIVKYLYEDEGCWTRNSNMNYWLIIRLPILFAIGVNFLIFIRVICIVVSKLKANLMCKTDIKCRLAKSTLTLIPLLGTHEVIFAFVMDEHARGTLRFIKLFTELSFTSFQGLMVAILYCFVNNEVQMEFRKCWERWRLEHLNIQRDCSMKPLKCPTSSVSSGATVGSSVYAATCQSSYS
Procedure: (§1) The purpose of this example is to test the functional activity, or potency, of the compounds in vitro at the human and mouse GLP-1, GIP, and Gcg receptors. The in vitro functional potency is the measure of target receptor activation in a whole cell assay.
(§2) In vitro functional potency was determined by measuring the response of the target receptor in a reporter gene assay in individual cell lines. The assay was performed in stably transfected BHK cell lines that expresses one of the following G-protein coupled receptors: human GLP-1 receptor, human GIP receptor, human Gcg receptor, mouse GLP-1 receptor, mouse GIP receptor, or mouse Gcg receptor; and where each cell line contains the DNA for the cAMP response element (CRE) coupled to a promoter and the gene for firefly luciferase (CRE luciferase). When the respective receptor is activated, it results in the production of cAMP, which in turn results in expression of the luciferase protein. […] The luminescence is measured as the readout for the assay. […]
(§3) The data from the microtiter plate reader was first regressed in an Excel in order to calculate the x-axis, log scale concentrations based on the individual test compound's stock concentration and the dilutions of the assay. […] A minimum of two replicates was measured for each sample. […]

mouse Gcg receptor [2] = biological target: T2, mouse Gcg receptor (Mus musculus, UniProt Q61606); assay: In vitro functional potency (CRE luciferase; whole cells), mouse GcgR; type: cell-based; details: BHK cells expressing mouse Gcg receptor
T2 construct: expressed in transfected cells; host or cells: BHK cells (parent line BHKTS13) containing CRE luciferase
T2 sequence (Q61606 27-485): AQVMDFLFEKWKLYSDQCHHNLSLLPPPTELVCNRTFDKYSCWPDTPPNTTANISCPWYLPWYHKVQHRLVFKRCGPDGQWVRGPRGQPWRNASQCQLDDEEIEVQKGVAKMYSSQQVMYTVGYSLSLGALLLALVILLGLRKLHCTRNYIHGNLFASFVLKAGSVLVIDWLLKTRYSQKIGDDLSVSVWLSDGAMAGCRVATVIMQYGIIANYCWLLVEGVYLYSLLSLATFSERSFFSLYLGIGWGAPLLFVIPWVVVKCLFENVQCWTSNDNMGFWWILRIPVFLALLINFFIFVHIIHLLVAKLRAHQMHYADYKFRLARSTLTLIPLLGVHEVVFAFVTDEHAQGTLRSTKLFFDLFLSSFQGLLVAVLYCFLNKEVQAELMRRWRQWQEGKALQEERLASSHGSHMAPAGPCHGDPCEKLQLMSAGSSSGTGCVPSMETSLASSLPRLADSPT
Procedure: as §1, §2, §3

mouse GIP receptor [3] = biological target: T3, mouse GIP receptor (Mus musculus, UniProt Q0P543); assay: In vitro functional potency (CRE luciferase; whole cells), mouse GIPR; type: cell-based; details: BHK cells expressing mouse GIP receptor
T3 construct: expressed in transfected cells; host or cells: BHK cells (parent line BHKTS13) containing CRE luciferase
T3 sequence (Q0P543 19-460): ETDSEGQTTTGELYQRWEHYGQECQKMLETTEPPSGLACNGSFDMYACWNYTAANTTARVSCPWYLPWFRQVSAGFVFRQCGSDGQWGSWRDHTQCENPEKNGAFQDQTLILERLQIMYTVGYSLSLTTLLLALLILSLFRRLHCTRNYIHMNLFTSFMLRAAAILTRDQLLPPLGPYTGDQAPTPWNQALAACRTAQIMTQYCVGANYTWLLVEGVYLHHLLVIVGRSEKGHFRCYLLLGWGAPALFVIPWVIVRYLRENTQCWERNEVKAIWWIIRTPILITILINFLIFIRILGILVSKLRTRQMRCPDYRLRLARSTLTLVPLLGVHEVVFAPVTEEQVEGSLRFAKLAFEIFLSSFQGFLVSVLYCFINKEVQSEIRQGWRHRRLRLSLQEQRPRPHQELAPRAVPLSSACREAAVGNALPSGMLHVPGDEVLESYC
Procedure: as §1, §2, §3

[4] = glucagon: depending on the route of administration; cited from earlier work
mouse GIP receptor [5] = biological target: T4, mouse GIP receptor (mouse, UniProt Q0P543 19-460); assay: cell-based or functional assay
T4 sequence (looked up): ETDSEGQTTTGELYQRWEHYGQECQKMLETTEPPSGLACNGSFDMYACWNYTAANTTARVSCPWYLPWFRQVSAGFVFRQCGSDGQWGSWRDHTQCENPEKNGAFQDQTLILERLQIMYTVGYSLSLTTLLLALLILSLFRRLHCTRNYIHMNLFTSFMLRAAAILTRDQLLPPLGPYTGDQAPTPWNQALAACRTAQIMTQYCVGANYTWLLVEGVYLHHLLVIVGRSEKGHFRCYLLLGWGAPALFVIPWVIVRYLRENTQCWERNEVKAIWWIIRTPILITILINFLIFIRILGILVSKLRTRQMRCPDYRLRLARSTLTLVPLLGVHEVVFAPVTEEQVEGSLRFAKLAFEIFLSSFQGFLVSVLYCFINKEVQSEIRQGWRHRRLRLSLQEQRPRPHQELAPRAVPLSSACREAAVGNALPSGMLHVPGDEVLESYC

mouse Gcg receptor [6] = biological target: mouse Gcg receptor (mouse, UniProt Q61606 27-485); assay: cell-based or functional assay
mouse Gcg receptor (mouse, UniProt Q61606 27-485), sequence (Q61606 27-485): as the sequence (Q61606 27-485) above

mouse GLP-1 receptor [7] = biological target: T5, mouse GLP-1 receptor (mouse, UniProt O35659 22-463); assay: cell-based or functional assay
T5 sequence (looked up): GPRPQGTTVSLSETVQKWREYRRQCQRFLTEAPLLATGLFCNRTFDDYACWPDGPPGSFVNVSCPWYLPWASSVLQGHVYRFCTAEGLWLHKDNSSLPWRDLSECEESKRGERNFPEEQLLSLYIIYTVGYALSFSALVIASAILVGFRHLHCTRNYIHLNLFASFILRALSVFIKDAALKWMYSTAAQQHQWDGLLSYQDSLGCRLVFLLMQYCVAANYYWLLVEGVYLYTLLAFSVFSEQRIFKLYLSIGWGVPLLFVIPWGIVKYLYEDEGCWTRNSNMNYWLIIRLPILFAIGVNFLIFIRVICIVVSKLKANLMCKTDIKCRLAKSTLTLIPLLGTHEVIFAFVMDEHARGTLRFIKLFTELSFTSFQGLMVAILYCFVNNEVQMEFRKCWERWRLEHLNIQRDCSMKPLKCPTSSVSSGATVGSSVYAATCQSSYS

human glucagon receptor = human glucagon receptor (human, UniProt P47871 26-477); assay: cell-based or functional assay
human glucagon receptor, sequence (P47871 26-477): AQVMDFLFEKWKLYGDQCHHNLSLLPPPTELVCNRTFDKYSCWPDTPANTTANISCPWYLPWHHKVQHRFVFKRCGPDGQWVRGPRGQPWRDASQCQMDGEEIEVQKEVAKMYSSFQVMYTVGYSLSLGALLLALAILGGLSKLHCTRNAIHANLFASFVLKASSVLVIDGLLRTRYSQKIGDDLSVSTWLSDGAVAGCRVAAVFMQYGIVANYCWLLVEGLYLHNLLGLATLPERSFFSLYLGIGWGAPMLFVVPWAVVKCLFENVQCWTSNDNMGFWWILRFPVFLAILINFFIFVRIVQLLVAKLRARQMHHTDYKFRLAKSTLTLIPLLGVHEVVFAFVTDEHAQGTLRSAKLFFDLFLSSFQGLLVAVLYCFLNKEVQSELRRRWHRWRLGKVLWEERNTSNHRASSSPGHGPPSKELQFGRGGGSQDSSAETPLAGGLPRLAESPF

[8] = biological target: T6, human glucose-dependent insulinotropic polypeptide receptor (human, UniProt P48546 22-466); assay: cell-based or functional assay
T6 sequence (looked up): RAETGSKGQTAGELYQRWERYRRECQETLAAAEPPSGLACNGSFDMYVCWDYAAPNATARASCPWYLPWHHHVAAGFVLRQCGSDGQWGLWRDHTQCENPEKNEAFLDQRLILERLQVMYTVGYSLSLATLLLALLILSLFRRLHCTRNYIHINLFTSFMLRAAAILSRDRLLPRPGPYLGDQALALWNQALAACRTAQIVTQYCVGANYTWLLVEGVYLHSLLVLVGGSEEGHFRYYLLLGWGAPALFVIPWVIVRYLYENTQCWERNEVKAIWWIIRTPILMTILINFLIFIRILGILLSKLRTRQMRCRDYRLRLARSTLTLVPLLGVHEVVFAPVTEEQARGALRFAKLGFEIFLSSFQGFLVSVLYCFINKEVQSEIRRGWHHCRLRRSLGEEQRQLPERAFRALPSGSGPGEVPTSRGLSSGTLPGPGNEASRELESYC

[9] = biological target: human glucagon-like peptide 1 receptor (human, UniProt P43220 24-463); assay: cell-based or functional assay

For `CC[C@H](C)[C@H](NC(=O)[C@H](CO)NC(=O)[C@H](Cc1ccc(O)cc1)NC(=O)[C@H](CC(=O)O)NC(=O)[C@H](CO)NC(=O)[C@@H](NC(=O)[C@H](Cc1ccccc1)NC(=O)[C@@H](NC(=O)CNC(=O)[C@H](Cc1c[nH]cn1)NC(=O)C(C)(C)NC(=O)[C@@H](N)Cc1c[nH]cn1)[C@@H](C)O)[C@@H](C)O)C(=O)N[C@@H](Cc1ccc(O)cc1)C(=O)N[C@@H](CC(C)C)C(=O)N[C@@H](CCC(=O)O)C(=O)N[C@@H](CCCCNC(=O)[C@@H](N)CCCCNC(=O)[C@@H](N)CCCCNC(=O)CC[C@H](NC(=O)C1CCC(CNC(=O)CCCCCCCCCCCCCCCCCCC(=O)O)CC1)C(=O)O)C(=O)N[C@@H](CCC(N)=O)C(=O)N[C@@H](C)C(=O)N[C@@H](C)C(=O)NC(C)(C)C(=O)N[C@@H](CCC(=O)O)C(=O)N[C@@H](Cc1ccccc1)C(=O)N[C@H](C(=O)N[C@@H](CCC(N)=O)C(=O)N[C@@H](Cc1c[nH]c2ccccc12)C(=O)N[C@@H](CC(C)C)C(=O)N[C@@H](CC(C)C)C(=O)N[C@@H](CCC(=O)O)C(=O)NCC(=O)NCC(=O)N1CCC[C@H]1C(=O)N[C@@H](CO)C(=O)N[C@@H](CO)C(=O)NCC(=O)N[C@@H](C)C(=O)N1CCC[C@H]1C(=O)N1CCC[C@H]1C(=O)N1CCC[C@H]1C(=O)N[C@@H](CO)C(N)=O)C(C)C` (stereo partly shown) [Compound No. 21] (H-H[Aib]HGTFTSDYSIYLEK([εLys-εLys-γGlu-X1])QAA[Aib]EFVQWLLEGGPSSGAPPPS-NH2; N-terminus assumed), the “mGLP-1R CRE Luc EC50 (pM)” value (mouse GLP-1 receptor [1]) was “similar”, the “mGcgR CRE Luc EC50 (pM)” value (mouse Gcg receptor [2]) was “reduced” and the “mGIPR CRE Luc EC50 (pM)” value (mouse GIP receptor [3]) was “similar”.

For `CC[C@H](C)[C@H](NC(=O)[C@H](CO)NC(=O)[C@H](Cc1ccc(O)cc1)NC(=O)[C@H](CC(=O)O)NC(=O)[C@H](CO)NC(=O)[C@@H](NC(=O)[C@H](Cc1ccccc1)NC(=O)[C@@H](NC(=O)CNC(=O)[C@H](CCC(=O)O)NC(=O)[C@H](C)NC(=O)[C@@H](N)Cc1ccc(O)cc1)[C@@H](C)O)[C@@H](C)CC)C(=O)N[C@@H](C)C(=O)N[C@@H](CCSC)C(=O)N[C@@H](CC(=O)O)C(=O)N[C@@H](CCCCN)C(=O)N[C@H](C(=O)N[C@@H](Cc1c[nH]cn1)C(=O)N[C@@H](CCC(N)=O)C(=O)N[C@@H](CCC(N)=O)C(=O)N[C@@H](CC(=O)O)C(=O)N[C@@H](Cc1ccccc1)C(=O)N[C@H](C(=O)N[C@@H](CC(N)=O)C(=O)N[C@@H](Cc1c[nH]c2ccccc12)C(=O)N[C@@H](CC(C)C)C(=O)N[C@@H](CC(C)C)C(=O)N[C@@H](C)C(=O)N[C@@H](CCC(N)=O)C(=O)N[C@@H](CCCCN)C(=O)NCC(=O)N[C@@H](CCCCN)C(=O)N[C@@H](CCCCN)C(=O)N[C@@H](CC(N)=O)C(=O)N[C@@H](CC(=O)O)C(=O)N[C@@H](Cc1c[nH]c2ccccc12)C(=O)N[C@@H](CCCCN)C(=O)N[C@@H](Cc1c[nH]cn1)C(=O)N[C@@H](CC(N)=O)C(=O)N[C@H](C(=O)N[C@H](C(=O)N[C@@H](CCC(N)=O)C(=O)O)[C@@H](C)O)[C@@H](C)CC)C(C)C)[C@@H](C)CC` [hGIP, Native Human GIP], the “half-life as measured in man” value [4] is given as 5 to 7 min.

B1: Compound No. 30 (peptide)
peptide: H[Aib]HGTFTSDYSIYLEKKYA[Aib]EFVQWLLEGGPSSGAPPPS-NH2
modifications: not fully specified (residue 16); printed as H-Aib-HGTFTSDYSIYLE-K[(2S)-2-amino-6-[[(2S)-2-amino-6-[[(4S)-4-carboxy-4-(19-carboxynonadecanoylamino)butanoyl]amino]hexanoyl]amino]hexanoyl]-KYA-Aib-EFVQWLLEGGPSSGAPPPS-NH2
With B1 the “mGIPR CRE Luc EC50 (pM)” value (mouse GIP receptor [5]) was 11.2 pM, the “mGcgR CRE Luc EC50 (pM)” value (mouse Gcg receptor [6]) was 5.7 pM and the “mGLP-1R CRE Luc EC50 (pM)” value (mouse GLP-1 receptor [7]) was 2.6 pM. For the same molecule, the “hGcgR CRE Luc EC50 (pM)” value (human glucagon receptor) was 9.3 pM, the “hGIPR CRE Luc EC50 (pM)” value [8] was 15.6 pM and the “hGLP-1R CRE Luc EC50 (pM)” value [9] was 3.9 pM.

B2: Compound No. 33 (peptide)
peptide: H[Aib]HGTFTSDYSIYLEKKAA[Aib]EFVQWLLEGGPSSGAPPPS-NH2
modifications: not fully specified (residue 16); printed as H-Aib-HGTFTSDYSIYLE-K[(2S)-2-amino-6-[[(2S)-2-amino-6-[[(4S)-4-carboxy-4-(19-carboxynonadecanoylamino)butanoyl]amino]hexanoyl]amino]hexanoyl]-KAA-Aib-EFVQWLLEGGPSSGAPPPS-NH2
For B2, the “mGIPR CRE Luc EC50 (pM)” value (mouse GIP receptor [5]) was 10 pM, the “mGcgR CRE Luc EC50 (pM)” value (mouse Gcg receptor [6]) was 8.1 pM and the “mGLP-1R CRE Luc EC50 (pM)” value (mouse GLP-1 receptor [7]) was 2.2 pM. For the same molecule, the “hGcgR CRE Luc EC50 (pM)” value (human glucagon receptor) was 13.7 pM, the “hGIPR CRE Luc EC50 (pM)” value [8] was 7.3 pM and the “hGLP-1R CRE Luc EC50 (pM)” value [9] was 3.3 pM.

In the case of H[Aib]HGTFTSDYSIYLEKQAA[Aib]EFVQWLLEGGPSSGAPPPS-NH2 (not fully specified (residue 16)) [Compound No. 21], the “mGIPR CRE Luc EC50 (pM)” value (mouse GIP receptor [5]) is reported as 9.8 pM, the “mGcgR CRE Luc EC50 (pM)” value (mouse Gcg receptor [6]) is reported as 56.1 pM and the “mGLP-1R CRE Luc EC50 (pM)” value (mouse GLP-1 receptor [7]) is reported as 2.9 pM. The “hGcgR CRE Luc EC50 (pM)” value (human glucagon receptor) was 26.6 pM, the “hGIPR CRE Luc EC50 (pM)” value [8] was 3.2 pM and the “hGLP-1R CRE Luc EC50 (pM)” value [9] was 3 pM.
